{"source": "paper PMC9943651", "key": {"[1]": {"target": "AnxA2 mutant #3 K115A;K119A;R205A;K206A (Homo sapiens) (UniProt P07355)", "sequence (P07355 34-339 K115A/K119A/R205A/K206A)": "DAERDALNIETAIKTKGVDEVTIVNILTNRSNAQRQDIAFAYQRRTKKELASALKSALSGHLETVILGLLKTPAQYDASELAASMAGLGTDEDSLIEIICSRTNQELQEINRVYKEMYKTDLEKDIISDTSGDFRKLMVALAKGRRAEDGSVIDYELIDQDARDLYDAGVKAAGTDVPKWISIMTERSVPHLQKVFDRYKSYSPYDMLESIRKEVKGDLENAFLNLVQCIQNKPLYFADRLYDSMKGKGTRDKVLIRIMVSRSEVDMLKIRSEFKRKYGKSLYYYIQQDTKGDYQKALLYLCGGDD", "test": "fluorescence anisotropy", "conditions": "full PS DNA; no 2' modification; 20 mM HEPES pH 7.0, 100 mM NaCl, 1 mM DTT, with 1 mM CaCl2, MgCl2 or EGTA; 50 nM labelled oligo, 0-120 uM protein; temperature not stated"}, "[2]": {"target": "Annexin A2 CTD (AnxA2) (Homo sapiens) (UniProt P07355)", "sequence (P07355 34-339)": "as the sequence (P07355 34-339 K115A/K119A/R205A/K206A) above, with A82K, A86K, A172R, A173K counted along it", "test": "fluorescence anisotropy", "conditions": "20 mM HEPES pH 7.0, 100 mM NaCl, 1 mM DTT, with 1 mM CaCl2, MgCl2 or EGTA, 50 nM labelled oligo, 0-120 uM protein, temperature not stated"}}, "data": [{"sequence": "CTGCTAGCCTCTGGATTTGA [PTEN PS, labelled]", "values": [{"measurement": "binding signal (fold weaker than wild type)", "setting": "[1]", "value": 7}, {"measurement": "Kd", "setting": "[2]; full PS DNA, no 2' modification", "value": 5, "unit": "µM"}]}, {"sequence": "GCCAGGCTGGTTATG [5-10 MALAT PS, labelled]", "values": [{"measurement": "Kd", "setting": "[2]; full PS, 5 nt 2'-MOE 5' wing + 10 nt DNA, 5-methyl-C", "value": 9.3, "unit": "µM"}]}, {"sequence": "GCCAGGCTGGTTATGACTCA [5-10-5 MALAT PS, labelled]", "values": [{"measurement": "Kd", "setting": "[2]; full PS, 5-10-5 2'-MOE gapmer, 5-methyl-C", "value": 6.3, "unit": "µM"}]}, {"sequence": "TTTTTTTTTTTTTTTTTTTG [T19G PS, labelled]", "values": [{"measurement": "Kd", "setting": "[2]; full PS DNA", "value": 8.2, "unit": "µM"}]}]}
